Target: Fes (UniProt P07332)
Test: phosphorylation enrichment, bacterial display (enrichment ratio); higher = better substrate or ligand; peptides without Tyr show the background
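Further: 11-residue human phosphosite peptides and single-mutation variants displayed on the E. coli surface, counted by deep sequencing, each peptide's frequency after selection divided by its frequency in the unselected input library; frequency after pTyr selection over input frequency; kinase dosed for 20-30% of maximal phosphorylation in three min.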

Fes, sequence (P07332 whole entry, looked up): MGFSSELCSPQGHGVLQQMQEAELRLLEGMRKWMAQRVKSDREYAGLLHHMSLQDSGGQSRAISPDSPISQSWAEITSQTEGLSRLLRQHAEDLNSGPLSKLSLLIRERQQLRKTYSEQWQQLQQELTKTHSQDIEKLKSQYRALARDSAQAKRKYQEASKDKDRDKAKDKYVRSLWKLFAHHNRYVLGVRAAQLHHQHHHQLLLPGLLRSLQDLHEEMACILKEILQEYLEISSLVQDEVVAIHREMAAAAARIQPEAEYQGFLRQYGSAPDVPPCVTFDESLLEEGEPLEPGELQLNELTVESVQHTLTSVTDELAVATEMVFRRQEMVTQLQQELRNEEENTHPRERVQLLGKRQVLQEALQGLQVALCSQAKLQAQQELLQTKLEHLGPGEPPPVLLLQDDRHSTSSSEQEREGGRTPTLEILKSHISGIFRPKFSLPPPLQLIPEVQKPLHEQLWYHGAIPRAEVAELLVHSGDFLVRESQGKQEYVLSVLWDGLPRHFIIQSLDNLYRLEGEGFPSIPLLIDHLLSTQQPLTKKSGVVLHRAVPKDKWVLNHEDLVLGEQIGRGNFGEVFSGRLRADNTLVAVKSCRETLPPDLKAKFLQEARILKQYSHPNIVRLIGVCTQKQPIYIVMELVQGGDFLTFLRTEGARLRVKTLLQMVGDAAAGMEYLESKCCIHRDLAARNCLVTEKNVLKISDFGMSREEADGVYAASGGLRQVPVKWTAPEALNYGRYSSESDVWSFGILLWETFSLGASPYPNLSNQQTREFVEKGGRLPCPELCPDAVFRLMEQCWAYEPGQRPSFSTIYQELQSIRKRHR

Point of comparison: AKRKGYDMRVD [NEB_Y2770], phosphorylation enrichment 0.477. Against it:
- NDPMEYAKQHG [ASS1_Y163_L160P] — higher, 0.876
- KPGVNYFFRVS — higher, 1.32
- PPLMLYNPTTF [EGFR_Y270_YF] — higher, 1.21
- YEEDSYSHIMA [FDPS_Y388] — higher, 1.26
- QEALEYFMKQV [PIK3CA_Y1038_M1043V] — higher, 0.978
- IRFPPYTDWNQ [ALDH3B2_Y365_H361R_YF] — higher, 0.739
- RQRTAYFSLNT [CDH1_Y68_D72N] — higher, 1.1
- SLFNGYVYSGM [NEIL3_Y71_V76M] — higher, 0.994
- IVFTSYFLTIL [TAS2R16_Y239] — higher, 1.89
- IENKPYGMSDP [RET_Y1062_L1061P] — higher, 0.861
- KLSCSYSHWSA [C4BPA_Y470] — higher, 1.28
- ATATEYHTTSH [SLC4A1_Y46_D45E] — higher, 0.509
- PTKNDYWAMPA [WWOX_Y287_L291P] — higher, 1.03
- AQESNYRLLRR [SLC20A2_Y377] — higher, 0.688
- RLEPVYFVAPA [LAMC2_Y250_D247E] — higher, 1.02
- RPPFTYATLIH [FOXP3_Y342_R347H] — higher, 1.22
- FNNPAYFVLEG [INPPL1_Y986_YF] — higher, 1.09
- SVVVPYEPPEL [TP53_Y220_V225L] — higher, 0.869
- VTRLWYPVCFG [ITK_Y336_R335W] — higher, 1.35
- LQTYRYHGHSM [PDHA1_Y289] — higher, 0.513
- WDLPEYSFKDP [ITGA3_Y237_S235P_YF] — higher, 1.25
- DLDPNYVLSSR [CKM_Y125] — higher, 1.01
- NVADHYRVYKP [ATP6V0D2_Y271_G272R] — higher, 0.767
- VKANTYEKYWL [GATM_Y100_P105L] — higher, 0.837
- GSERDYTFDEL [EIF2S2_Y174_E177D_YF] — higher, 1.18
- KNSSIYVVANI [VNN1_Y134_N131S] — higher, 1.38
- HLPAGYIIPLQ [GAA_Y822_R819P] — higher, 0.764
- LAETSYVTVLE [MAGEA1_Y276_K278T] — higher, 1.65
- PDSVDYPKKGY [CTSK_Y121_R122P] — higher, 0.654
- VEYAKYGSLQG [RET_Y809_R813Q] — higher, 0.662
- DDKEYYSVHNK [MET_Y1235_Y1230D] — higher, 1.06
- NAMRRYIEEFQ [MNS1_Y244] — higher, 0.819

Test system: c-Src
Test: as above

Point of comparison: NVADHYRVYKP [ATP6V0D2_Y271_G272R], phosphorylation enrichment 0.412. Against it:
- AKRKGYDMRVD [NEB_Y2770] — lower, 0.363
- NDPMEYAKQHG [ASS1_Y163_L160P] — lower, 0.396
- KPGVNYFFRVS — lower, 0.374
- PPLMLYNPTTF [EGFR_Y270_YF] — higher, 0.863
- YEEDSYSHIMA [FDPS_Y388] — higher, 0.813
- QEALEYFMKQV [PIK3CA_Y1038_M1043V] — higher, 0.463
- IRFPPYTDWNQ [ALDH3B2_Y365_H361R_YF] — lower, 0.328
- RQRTAYFSLNT [CDH1_Y68_D72N] — higher, 0.667
- SLFNGYVYSGM [NEIL3_Y71_V76M] — higher, 5.4
- IVFTSYFLTIL [TAS2R16_Y239] — higher, 0.514
- IENKPYGMSDP [RET_Y1062_L1061P] — higher, 0.414
- KLSCSYSHWSA [C4BPA_Y470] — higher, 0.672
- ATATEYHTTSH [SLC4A1_Y46_D45E] — higher, 0.413
- PTKNDYWAMPA [WWOX_Y287_L291P] — higher, 0.952
- AQESNYRLLRR [SLC20A2_Y377] — lower, 0.365
- RLEPVYFVAPA [LAMC2_Y250_D247E] — higher, 6.33
- RPPFTYATLIH [FOXP3_Y342_R347H] — higher, 3.31
- FNNPAYFVLEG [INPPL1_Y986_YF] — higher, 0.875
- SVVVPYEPPEL [TP53_Y220_V225L] — higher, 0.437
- VTRLWYPVCFG [ITK_Y336_R335W] — lower, 0.403
- LQTYRYHGHSM [PDHA1_Y289] — lower, 0.285
- WDLPEYSFKDP [ITGA3_Y237_S235P_YF] — higher, 1.02
- DLDPNYVLSSR [CKM_Y125] — higher, 0.534
- VKANTYEKYWL [GATM_Y100_P105L] — higher, 0.652
- GSERDYTFDEL [EIF2S2_Y174_E177D_YF] — higher, 0.639
- KNSSIYVVANI [VNN1_Y134_N131S] — higher, 0.691
- HLPAGYIIPLQ [GAA_Y822_R819P] — higher, 0.492
- LAETSYVTVLE [MAGEA1_Y276_K278T] — higher, 0.496
- PDSVDYPKKGY [CTSK_Y121_R122P] — higher, 0.569
- VEYAKYGSLQG [RET_Y809_R813Q] — higher, 1.44
- DDKEYYSVHNK [MET_Y1235_Y1230D] — higher, 0.874
- NAMRRYIEEFQ [MNS1_Y244] — lower, 0.347

Source: the supplement of paper PMC10065799, “High-throughput profiling of sequence recognition by tyrosine kinases and SH2 domains using bacterial peptide display” (eLife, 2023)
